From patent US7906310B2, “Proteases” (Novozymes A/S, priority 2003, dated 2011)

Assay: pNA assay dose/response curves with and without various inhibitors
Assay type: biochemical
Details: proteases included for comparative purposes
Procedure: pNA substrate: Suc-AAPF-pNA (Bachem L-1400) or Boc-VLGR-pNA (Bachem L-1205). Temperature: 25° C.
20 ul (microliters) protease (diluted in 0.01% Triton X-100) was placed in a well of a micro titer plate. The assay was started by adding 200 ul pNA substrate (50 mg dissolved in 1.0 ml DMSO and further diluted 100× with assay buffer). The increase in OD405 was monitored as a measure of the protease activity.
Dose/response relationships (OD405/min versus (mg enzyme)/l) were determined using the pNA assay for a number of proteases, with and without the various inhibitors. The dose-response curves were linear over a satisfactory broad range of enzyme concentrations. Varying degrees of inhibition were observed: Some proteases included for comparative purposes, viz. porcine trypsin and the SAVINASE™ protease (a subtilisin protease derived from Bacillus clausii, commercially available from Novozymes A/S, Krogshoejvej 36, DK-2880 Bagsvaerd, Denmark) were not inhibited, while other proteases were. […] It was therefore concluded that the pNA assay was indeed suitable for inhibition measurements.
Cu^2+, however, inhibited all of the proteases tested (to a varying extent, as it appears from Table 1 below).

B1: porcine trypsin: protease included for comparative purposes (protein, UniProt P00761 9-231, looked up)
Trypsin: IVGGYTCAANSIPYQVSLNSGSHFCGGSLINSQWVVSAAHCYKSRIQVRLGEHNIDVLEGNEQFINAAKIITHPNFNGNTLDNDIMLIKLSSPATLNSRVATVSLPRSCAAAGTECLISGWGNTKSSGSSYPSLLQCLKAPVLSDSSCKSSYPGQITGNMICVGFLEGGKDSCQGDSGGPVVCNGQLQGIVSWGYGCAQKNKPGVYTKVCNYVNWIQQTIAAN
- Inhibition by the various inhibitors (dose/response, pNA assay): not inhibited
